The target in experiment [1] is T1, HMG-CoA reductase (Homo sapiens, UniProt P04035).
T1 construct: The cell proteins were used as enzyme source; endogenous in cells; host or cells: HepG2
T1 sequence (P04035 1-888): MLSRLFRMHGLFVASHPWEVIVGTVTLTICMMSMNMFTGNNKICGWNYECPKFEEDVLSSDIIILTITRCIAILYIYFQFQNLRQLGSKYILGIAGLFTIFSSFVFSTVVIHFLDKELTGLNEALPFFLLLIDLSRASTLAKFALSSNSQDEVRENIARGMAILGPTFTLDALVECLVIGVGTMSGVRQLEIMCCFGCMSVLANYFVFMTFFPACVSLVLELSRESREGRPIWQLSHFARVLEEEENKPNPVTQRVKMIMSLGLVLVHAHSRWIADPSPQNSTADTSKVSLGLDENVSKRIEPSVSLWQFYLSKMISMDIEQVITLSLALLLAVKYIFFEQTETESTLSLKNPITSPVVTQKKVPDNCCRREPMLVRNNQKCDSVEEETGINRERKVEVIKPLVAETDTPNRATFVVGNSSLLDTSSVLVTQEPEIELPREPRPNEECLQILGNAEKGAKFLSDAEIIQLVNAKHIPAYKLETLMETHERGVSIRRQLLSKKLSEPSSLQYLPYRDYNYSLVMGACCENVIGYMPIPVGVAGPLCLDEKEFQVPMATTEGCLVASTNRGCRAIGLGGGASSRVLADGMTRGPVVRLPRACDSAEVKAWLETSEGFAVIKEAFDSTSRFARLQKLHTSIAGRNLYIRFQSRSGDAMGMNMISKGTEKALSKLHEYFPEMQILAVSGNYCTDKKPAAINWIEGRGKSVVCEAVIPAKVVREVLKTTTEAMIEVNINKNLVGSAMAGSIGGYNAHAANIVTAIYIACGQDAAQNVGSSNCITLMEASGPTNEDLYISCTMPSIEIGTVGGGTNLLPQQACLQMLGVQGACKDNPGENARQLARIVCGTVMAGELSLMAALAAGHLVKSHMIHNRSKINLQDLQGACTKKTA
The experiment can be described thus: HMGCoA reductase activity assay, HepG2 cells treated with inhibitors, cell proteins used as enzyme source. The experiment is classed as cell-based. Here is the method:
The cell stocks of Human Hepatoma cell line-HepG2 were cultured in T-25 flask in Eagle's minimum essential medium (MEM), supplemented with 10% fetal bovine serum, and incubated in a humidified incubator (5% CO2) at 37° C.
After 4 hours incubation with the inhibitors, the media was discarded and cells were washed with 0.90%saline. The cells were scraped and collected into a 50 ml tube. The cells were centrifuged at 2400 rpm for 5 min at 4 C, and the resulting cell pellet was washed twice with 10 ml saline. The final cell pellet was resuspended in 30 μl lysis buffer and briefly sonicated. The suspension was centrifuged at 14,000 rpm for 15 min and the supernatant containing the enzyme, HMGCoA reductase, was used for the assay.
In biosynthesis of cholesterol, HMG-CoA reductase is the key enzyme to convert HMG-CoA to its product mevalonate. In the presence of HCl, the mevalonate is converted into mevalonolactone. […] It will retain HMG-CoA, which is negatively charge in the column but not mevalonolactone, which will be eluted out by ammonium formate.
The 50 μl assay buffer (100 mM potassium dihydrogen phosphate, 4 mM dithiothreitol, 20 mM glucose-6-phosphate, 20 unit glucose-6-phosphate dehydrogenase, 2.5 mM NADP^+, 30 μM [14C] HMG-CoA (0.01 μCi) and microsomal protein) was incubated at 37° C. for 1 hour. Reaction was terminated by addition of 25 μl of 2M HCl. After 30 min lactonization of mevalonate to mevalonolactone, 500 μl of 20 mM ammonium formate was added to each sample, spun for 5 min at 14,000 rpm.
Supernatant was applied to the column that is pre-packed with QAE-Sephadex (4 cm), equilibrated with ammonium formate. The first 5 ml fractions was eluted with 20 mM ammonium formate, followed by 5 ml of 0.05M HCl and 10 ml of 0.1M HCl. Radioactivity of the first 5 ml (1 ml fraction) was determined using Beckman LS6500 scintillation counter.

Experiment [2] deals with T2, HMG-CoA reductase from human hepatoma HepG2 cells (human) (UniProt P04035).
T2 sequence: T1 sequence (P04035 1-888)
Put plainly: cell-based or functional assay.

In experiment [3] the target is T3, HMGCoA reductase (Rattus norvegicus, UniProt P51639).
T3 construct: enzymes purified from the rat liver microsomes; from tissue; host or cells: rat hepatocytes / rat liver microsomes
T3 sequence (P51639 1-887): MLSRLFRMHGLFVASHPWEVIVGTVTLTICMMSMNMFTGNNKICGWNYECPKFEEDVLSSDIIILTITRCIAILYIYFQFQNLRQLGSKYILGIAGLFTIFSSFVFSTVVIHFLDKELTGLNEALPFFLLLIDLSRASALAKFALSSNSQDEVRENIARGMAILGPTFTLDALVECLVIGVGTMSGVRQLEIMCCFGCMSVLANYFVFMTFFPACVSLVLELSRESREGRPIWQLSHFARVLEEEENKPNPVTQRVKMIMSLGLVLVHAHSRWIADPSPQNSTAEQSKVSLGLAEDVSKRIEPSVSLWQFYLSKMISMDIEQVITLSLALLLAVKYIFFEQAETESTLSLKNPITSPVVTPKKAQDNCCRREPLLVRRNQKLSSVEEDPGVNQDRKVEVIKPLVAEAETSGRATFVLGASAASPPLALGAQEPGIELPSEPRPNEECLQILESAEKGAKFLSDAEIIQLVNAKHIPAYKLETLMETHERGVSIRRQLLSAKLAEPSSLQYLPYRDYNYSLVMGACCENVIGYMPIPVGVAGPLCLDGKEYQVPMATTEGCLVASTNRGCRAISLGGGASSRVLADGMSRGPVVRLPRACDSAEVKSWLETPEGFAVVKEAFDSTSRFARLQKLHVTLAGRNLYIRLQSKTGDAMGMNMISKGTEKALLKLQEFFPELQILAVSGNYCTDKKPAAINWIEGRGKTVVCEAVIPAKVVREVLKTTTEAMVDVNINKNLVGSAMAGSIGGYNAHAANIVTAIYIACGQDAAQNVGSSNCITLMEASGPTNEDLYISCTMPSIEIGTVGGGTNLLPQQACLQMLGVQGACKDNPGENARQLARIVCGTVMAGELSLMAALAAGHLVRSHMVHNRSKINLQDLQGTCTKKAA
The experiment can be described thus: HMGCoA reductase assay using the enzyme isolated from rat hepatocytes, inhibitors added to the enzyme assay. The experiment is classed as biochemical. As to conditions: enzyme from rat hepatocytes / rat liver microsomes.

Experiment [4] concerns HepG2 cell. Put plainly: Microarray analysis (global gene expression, HG_U133A chips) of treated HepG2 cells. The experiment is classed as cell-based, human.
Experimental: The global gene expression (DNA microarray) analysis was carried out on human gene chips (HG_U133A). […] Genes showing two-fold signal to log ratio in expression from two independent experiments were scored as significant.
Experiment [5] has as its system HepG2 cell protein profile. The experiment can be described thus: Protein profiling by SELDI-TOF (H4 and NP20 chips) of treated HepG2 cells. Format: cell-based, human. The settings on record: Table 3A, hydrophobic chip H4. The text has this: As for the protein profiling data, the profiles as shown in Table 3 were obtained by surface-enhanced laser […] ionization-time of flight mass spectro-photometry (SELDI-TOF) on treated and control samples using the H4 (hydrophobic) and the NP20 (hydrophilic) chips.

Setting [6] is: HepG2 cells treated with synthetic peptides or statins at 10 μM, vs untreated cells.
[7] abbreviates: HepG2, read-out: % of inhibition on HMG-CoA reductase activity, DMSO medium.

“Also recorded” adds a separate entry of the source. Where two headings read alike, the source gives them in different places.

In the case of “QGIDYDNSFFFGALEKQCPK (Buthus martensii Karsch) [Peptide 4]”, in experiment [1] (setting [6]), the “% of inhibition on HMG-CoA reductase activity, Aqueous medium” value is on record as 7%.
With “LSPWNEGDTYYGCQR (Buthus martensii Karsch) [Peptide 7]”, the “% of inhibition on HMG-CoA reductase activity, Aqueous medium” value in experiment [1] (setting [6]) was 2%.
Take `CC[C@H](C)C(=O)O[C@H]1CCC=C2C=C[C@H](C)[C@H](CC[C@@H]3C[C@@H](O)CC(=O)O3)[C@H]21` [Mevastatin, reference compound]: in experiment [1] (10 µM), the “% of inhibition on HMG-CoA reductase activity, Aqueous medium” value is 35% and the “% of inhibition on HMG-CoA reductase activity, DMSO medium” value was found to be 60%.
In the case of `CC(C)c1c(C(=O)Nc2ccccc2)c(-c2ccccc2)c(-c2ccc(F)cc2)n1CC[C@@H](O)C[C@@H](O)CC(=O)O` [Atorvastatin, reference compound], the inhibition at 10 µM in experiment [1] (setting [7]) stood at 70%.
Consider “QPAPFVKLCTCQGI (Buthus martensii Karsch) [Peptide 1]”, for which, in experiment [1] (setting [6]), the “% of inhibition on HMG-CoA reductase activity, Aqueous medium” value came out at 20% and the “% of inhibition on HMG-CoA reductase activity, DMSO medium” value was found to be 20%.
On to “KLHLASGGSCQQPAPFVKL (Buthus martensii Karsch) [Peptide 2]”, for which, in experiment [1] (setting [6]), the “% of inhibition on HMG-CoA reductase activity, Aqueous medium” value is 30% and the “% of inhibition on HMG-CoA reductase activity, DMSO medium” value was determined as 7%.
Turning to “GDTYYG (Buthus martensii Karsch) [Peptide 9]”, in experiment [1] (setting [6]), the “% of inhibition on HMG-CoA reductase activity, Aqueous medium” value came out at 3%.
On to “GCQRQTDEFCNKICKLHLASG (Buthus martensii Karsch) [Peptide 5]”, for which the “% of inhibition on HMG-CoA reductase activity, Aqueous medium” value in experiment [1] (setting [6]) came out at 2%.
Consider `CCC(C)(C)C(=O)O[C@H]1C[C@@H](C)C=C2C=C[C@H](C)[C@H](CC[C@@H]3C[C@@H](O)CC(=O)O3)[C@H]21` [Simvastatin, reference compound], for which the inhibition at 10 µM in experiment [1] (HepG2, read-out: % of inhibition on HMG-CoA reductase activity, Aqueous medium) was 35%; in experiment [1] (setting [7]), 65%.
On to “SPWNEGD (Buthus martensii Karsch) [Peptide 8]”, for which, in experiment [1] (setting [6]), the “% of inhibition on HMG-CoA reductase activity, Aqueous medium” value is 1%.
As to `CC(C)n1c(/C=C/C(O)CC(O)CC(=O)O)c(-c2ccc(F)cc2)c2ccccc21` (centres unmarked) [Fluvastatin, reference compound], the inhibition at 10 µM in experiment [1] (HepG2 cells treated with synthetic peptides or statins at 10 μM, vs untreated cells, read-out: % of inhibition on HMG-CoA reductase activity, DMSO medium) came to 74%.
Consider “PAPFVKLCTCQGIDYDNSFFFG (Buthus martensii Karsch) [Peptide 3]”, for which, in experiment [1] (setting [6]), the “% of inhibition on HMG-CoA reductase activity, Aqueous medium” value is on record as 10% and the “% of inhibition on HMG-CoA reductase activity, DMSO medium” value is reported as 15%.
Consider “DSLSPWNEGDTYYG (Buthus martensii Karsch) [Peptide 6]”, for which the “% of inhibition on HMG-CoA reductase activity, Aqueous medium” value in experiment [1] (setting [6]) is listed as 4%.

B1: JCH2 native protein purified from Buthus martensii Karsch venom (protein)
chain: DSLSPWNEGDTYYGCQRQTDEFCNKICKLHLASGGSCQQPAPFVKLCTCQGIDYDNSFFFGALEKQCPKLRE
Molecule B1 displayed a % of inhibition on HMG-CoA reductase activity, aqueous medium, JCH2 at 0.6 µM (10 µg) in experiment [2] of 30%. The “HMGCoA reductase inhibitory activity compared with statins (in words)” value in experiment [1] (HepG2 cell HMGCoA reductase, JCH2 0.6 μM vs statins 10 μM) is reported as “lowering the HMGCoA reductase activity at much lower concentrations than the known inhibitors; also recorded: higher inhibitory activity”. For the same molecule, the “% of inhibition on HMG-CoA reductase activity, Aqueous medium” value in experiment [1] (HepG2 cells treated with native proteins at 10 μg each (JCH2 0.6 μM), vs untreated cells) was found to be 30%. The “HMGCoA reductase inhibitory activity (in words)” value in experiment [3] was “higher inhibitory activity”. Besides, in experiment [4] (microarray), the “HMGCoA reductase mRNA (in words)” value was “reducing the reductase mRNA”. The “mevalonate, the precursor for cholesterol biosynthesis (in words)” value in experiment [4] (microarray analysis) is given as “lowering the mevalonate”. Moreover, in experiment [5], the “ApoC-II/III (8.8 kDa)” value is on record as “↑ ↑” and the “StAR related lipid transfer protein (23.0 kDa)” value is listed as “↑ ↑”.

By inhibition is commonly meant the relative decrease from the control value, in per cent.

For the origin of these results see patent US20060222638A1, “Cholesterol biosynthesis pathway modulators and uses thereof” (priority 2003, published 2006).
